US20240409663A1 (CONCEPT TO MEDICINE BIOTECH, published 2024)
Changes are numbered by the printed parent chain.

B1: 52H5D3B8-6#-VH2+VL1 (antibody, V domains shown)
VH: QVQLVQSGAEVKKPGASVKVSCKASGYTFTDYEMHWVRQAPGQGLEWIGAIHPGSGGTAYNQKFKGRVTMTADTSTSTVYMELSSLRSEDTAVYYCTRYYSYAYWGQGTLVTVSS
VL: DIVMTQTPLSLSVTPGQPASISCRSSQSLVHSNGNTYLQWYLQKPGQSPQLLIYKVSNRFSGVPDRFSGSGSGTDFTLKISRVEAEDVGVYYCFQSIHVPYTFGGGTKLEIK
notes: humanized
B2: 52H5D3B8-6#-VH1+VL2 (antibody, V domains shown)
VH: B1 VH with I48M, A72R, T97A
VL: B1 VL with Y92F
notes: humanized
B3: 18C1D9 mouse monoclonal antibody (antibody, V domains shown)
VH: QVQLQQSGAELVRPGASVTLSCKASGYTFSDYEMHWVKQTPVHGLEWIGAIDPETGGTAYNQKFKGKATLTADKSSSTAYMELRSLTSEDSAVYYCTRYYSYAYWGQGTLVTVSA
VL: DVVMTQSPLSLPVSLGDQASISCRSRQSLVHSNGNTYLQWYLQKPGQSPKLLIYKVSNRFSGVPDRFSGSGSGTDFTLKISRVEAEDLGVYFCFQSIHVPYTFGGGTKLEKK
notes: mouse hybridoma antibody
B4: 163E7D12 mouse monoclonal antibody (antibody, V domains shown)
VH: B3 VH with S30T, D52G, G57S, K63R, T69I, L70V, Y102F
VL: B3 VL with S7T, D17G, R26S, Y54F, K111I
notes: mouse hybridoma antibody
B5: 172B4E9 mouse monoclonal antibody (antibody, V domains shown)
VH: QVQLQQSGAELVRPGASVTLSCKASGYTFTDYEIHWVKQTPVHGLEWIGAIDPATGDTAYTQKFKGKAILTADTSSNTVYMELRGLTSEDSAVHFCTRFYSYAYWGQGTLVTVSA
VL: DVVMTQTPLSLPVSLGDQASISCRSSQSLVHTNGHTYLQWYLQKSGQSPRLLIFKVSNRFSGVPDRFSGSGSGTDFKLKISRVEAEDLGVYFCSQSTHVPYTFGGGTKLEIK
notes: mouse hybridoma antibody
B6: 152E9F7 mouse monoclonal antibody (antibody, V domains shown)
VH: B5 VH with A54E, T74K, G85S, H94Y, F95Y
VL: B5 VL with R50K, F54Y, K77T
notes: mouse hybridoma antibody
B7: 52H5D3B8 mouse monoclonal antibody (antibody, V domains shown)
VH: B3 VH with T19K, S25L, S30T, D52H, E54G, T55S, S75F, A79G, R84S, Y99F
VL: B3 VL with S7T, R26S, T77I, F94S, K111I
notes: mouse hybridoma antibody
B8: 171F9C5 mouse monoclonal antibody (antibody, V domains shown)
VH: B3 VH with S30T, M34I, G56D, G57N, N61S, T69I
VL: B5 VL with L29P, T32R, H35N, Q39H, S45P, R50K, K77T, E84A, S96T
notes: mouse hybridoma antibody
B9: 52H5D3B8-1# chimeric mAb (antibody, V domains shown)
VH: B3 VH with T19K, S25L, S30T, D52H, E54G, T55S, S75F, A79G, R84S
VL: B3 VL with S7T, R26S, T77I, F94S, K111I
notes: CDR3 mutant of the 52H5D3B8 chimeric mAb (human IgG1)
B10: 52H5D3B8-2# chimeric mAb (antibody, V domains shown)
VH: QVQLQQSGAELVRPGASVKLSCKALGYTFTDYEMHWVKQTPVHGLEWIGAIHPGSGGTAYNQKFKGKATLTADKFSSTGYMELSSLTSEDSAVYYCTRFYSFAYWGQGTLVTVSA
VL: B3 VL with S7T, R26S, T77I, F94S, K111I
notes: as for B9
B11: 52H5D3B8-3# chimeric mAb (antibody, V domains shown)
VH: B10 VH with F102Y
VL: B3 VL with S7T, R26S, T77I, K111I
notes: as for B9
B12: 52H5D3B8-4# chimeric mAb (antibody, V domains shown)
VH: B10 VH with F102Y
VL: B3 VL with S7T, R26S, T77I, F94S, I97T, K111I
notes: as for B9
B13: 52H5D3B8-5# chimeric mAb (antibody, V domains shown)
VH: B10 VH with F99Y
VL: B3 VL with S7T, R26S, T77I, F94S, K111I
notes: as for B9
B14: 52H5D3B8-7# chimeric mAb (antibody, V domains shown)
VH: B10 VH with F99Y, F102Y
VL: B3 VL with S7T, R26S, T77I, F94S, I97T, K111I
notes: as for B9
B15: 52H5D3B8-8# chimeric mAb (antibody, V domains shown)
VH: B10 VH
VL: B3 VL with S7T, R26S, T77I, K111I
notes: as for B9
B16: 52H5D3B8-9# chimeric mAb (antibody, V domains shown)
VH: B10 VH
VL: B3 VL with S7T, R26S, T77I, F94S, I97T, K111I
notes: as for B9
B17: 52H5D3B8-10# chimeric mAb (antibody, V domains shown)
VH: B10 VH with F102Y
VL: B3 VL with S7T, R26S, T77I, I97T, K111I
notes: as for B9
B18: 52H5D3B8-11# chimeric mAb (antibody, V domains shown)
VH: B10 VH
VL: B3 VL with S7T, R26S, T77I, I97T, K111I
notes: as for B9
B19: 52H5D3B8-12# chimeric mAb (antibody, V domains shown)
VH: B10 VH with F99Y, F102Y
VL: B3 VL with S7T, R26S, T77I, I97T, K111I
notes: as for B9
B20: 52H5D3B8-13# chimeric mAb (antibody, V domains shown)
VH: B10 VH with F99Y
VL: B3 VL with S7T, R26S, T77I, F94S, I97T, K111I
notes: as for B9
B21: 52H5D3B8-14# chimeric mAb (antibody, V domains shown)
VH: B10 VH with F99Y
VL: B3 VL with S7T, R26S, T77I, K111I
notes: as for B9
B22: 52H5D3B8-15# chimeric mAb (antibody, V domains shown)
VH: B10 VH with F99Y
VL: B3 VL with S7T, R26S, T77I, I97T, K111I
notes: as for B9

Target: T1, human GPC3 on cells (human, UniProt P51654 25-554)
T1 construct: whole, on cells; over-expressed on CHOK1 cells or endogenous on HEPG2, Hep3B and Huh-7 hepatocellular carcinoma cells; the cell line is named under assay; also called GPC3-CHOK1 cells; human GPC3 over-expressed CHOK1 cells
Assay: FACS, GPC3-CHOK1 cells
Method: (§1) To evaluate the antigen binding property, the humanized antibodies were analyzed for their binding to human GPC3 over-expressed CHOK1 cells, HEPG2 cells, Hep3B cells and Huh-7 cells by FACS. Briefly, GPC3-CHOK1 cells, HEPG2 cells, Hep3B cells and Huh-7 cells were firstly incubated with Fc blocking reagent at 4° C. for 15 mins. Cells were washed by FACS buffer and divided to each well with 4-fold serially diluted humanized antibodies starting at 10 μg/mL at 4° C. for 60 mins. Cells were washed by FACS buffer and fixed with 2% PFA at RT for 15 mins. […] The 16 humanized antibodies were separated into two plates.

Binder	EC50 [µg/mL]
B1	0.0384
B2	0.0388

Target: T1, human GPC3 on cells
Assay: FACS, Huh-7 cells
Method: as §1

Binder	EC50 [µg/mL]
B1	0.0427
B2	0.0326

Target: T1, human GPC3 on cells
Assay: FACS, Hep3B cells
Method: as §1

Binder	EC50 [µg/mL]
B1	0.0824
B2	0.0615

Target: T2, human GPC3-his tag protein (human, UniProt P51654 25-559, limits assumed)
T2 construct: recombinant soluble antigen used as analyte in all Biacore runs; also called recombinant GPC3 protein; rhGPC3-His; not shown: His tag
Assay: SPR Biacore 8K, mAb captured on CM5, single dose GPC3-his
Method: The binding of mouse monoclonal antibodies to human GPC3-his was tested with Biacore using a capture method. The antibodies were captured using CM5 sensor chip. A single dose of human GPC3-his tag protein was injected over captured antibody for 2 mins at a flow rate of 30 μl/min. The antigen was allowed to dissociate for 360 s. All the experiments were carried out on a Biacore 8K. Data analysis was carried out using Biacore 8K evaluation software.

Binder	Kd [nM]	koff [s⁻¹]	kon [M⁻¹ s⁻¹]
B3	1.57	0.000412	262000
B4	0.755	0.000169	223000
B5	0.446	9.01e-05	202000
B6	0.881	0.000162	184000
B7	1.39	0.000317	228000
B8	1.22	0.000199	162000

Target: T1, human GPC3 on cells
Assay: FACS, GPC3-CHOK1 cells
Remark: another data set of the same source
Method: Briefly, GPC3-CHOK1 cells were firstly incubated with Fc blocking reagent at 4° C. for 15 mins. Cells were washed by FACS buffer and divided to each well with 3-fold serially diluted 52H5D3B8, 52H5D3B8-1 #, 52H5D3B8-2 #, 52H5D3B8-3 #, 52H5D3B8-4 #, 52H5D3B8-5 #, 52H5D3B8-6 #, 52H5D3B8-7 #, 52H5D3B8-8 #, 52H5D3B8-9 #, 52H5D3B8-10 #, 52H5D3B8-11 #, 52H5D3B8-12 #, 52H5D3B8-13 #, 52H5D3B8-14 # and 52H5D3B8-15# chimeric mAbs starting at 30 μg/mL at 4° C. for 60 mins. Cells were washed by FACS buffer and fixed with 2% PFA at RT for 15 mins. […] Samples were washed twice with FACS buffer.

Binder	EC50 [µg/mL]
B9	0.104
B10	0.149
B11	0.0869
B12	0.0986
B13	0.405
B14	0.232
B15	0.0919
B16	0.247
B17	0.176
B18	0.104
B19	0.235
B20	1.55
B21	0.0895
B22	0.15

Target: T2, human GPC3-his tag protein
Assay: SPR Biacore 8K, mAb captured, one or two doses GPC3-his
Method: The binding of the optimized antibodies of 52H5D3B8 mAb to human GPC3-his was tested with Biacore using a capture method. A single dose or two doses of human GPC3-his tag protein was injected over captured antibody. All the experiments were carried out on a Biacore 8K. Data analysis was carried out using Biacore 8K evaluation software.

Binder	Kd [nM]	koff [s⁻¹]	kon [M⁻¹ s⁻¹]
B9	0.74	0.000288	390000
B10	5.31	0.00121	228000
B11	1.06	0.000556	525000
B12	1.72	0.000578	335000
B13	4.12	0.000412	100000
B14	3.97	0.000617	155000
B15	2.03	0.001	494000
B16	12.9	0.00216	167000
B17	4.05	0.00118	291000
B18	10.9	0.00354	326000
B19	5.56	0.00133	240000
B20	28.9	0.00143	49600
B21	1.53	0.000737	481000
B22	28.2	0.00755	267000

Target: T2, human GPC3-his tag protein
Assay: SPR Biacore 8K, mAb captured, affinity ranking
Method: To evaluate antigen binding activity, the chimeric antibody's affinity was measured by Biacore 8K. A serial dilution of human GPC3-his tag protein was injected over captured chimeric antibody 52H5D3B8-6 #-VH+VL for 3 mins at a flow rate of 30 μl/min. The antigen was allowed to dissociate for 720 s. Among the multi detection doses, two concentrations with most close affinity to the chimeric antibody's affinity were chosen for the 16 humanized antibodies' affinity detection.

Binder	Kd [nM]	koff [s⁻¹]	kon [M⁻¹ s⁻¹]
B1	1.15	0.000742	646000
B2	2	0.00113	564000

Target: T1, human GPC3 on cells
Assay: FACS, HEPG2 cells
Method: as §1

Binder	EC50 [µg/mL]
B1	0.0479
B2	0.043
